Measured values published in patent US20170218057A1.

Key:
[1] = target: NTSR1 (UniProt P30989); experiment: cell-based or functional assay
[2] = target: p12026-BSA-conjugate (human); experiment: ELISA, plate coated with p12026-BSA-conjugate 4 µg/ml; serum dilution 1:200
[3] = target: p12026-BSA-conjugate (human); experiment: ELISA, plate coated with p12026-BSA-conjugate 4 µg/ml; serum dilution 1:100
[4] = target: p12026-BSA-conjugate (human); experiment: ELISA, plate coated with p12026-BSA-conjugate 4 µg/ml; serum dilution 1:400
[5] = target: p12026-BSA-conjugate (human); experiment: ELISA, plate coated with p12026-BSA-conjugate 4 µg/ml; serum dilution 1:800
[6] = target: p12026-BSA-conjugate (human); experiment: ELISA, plate coated with p12026-BSA-conjugate 4 µg/ml; serum dilution 1:6400
[7] = target: p12026-BSA-conjugate (human); experiment: ELISA, plate coated with p12026-BSA-conjugate 4 µg/ml; serum dilution 1:1600
[8] = target: p12026-BSA-conjugate (human); experiment: ELISA, plate coated with p12026-BSA-conjugate 4 µg/ml; serum dilution 1:12800
[9] = target: p12026-BSA-conjugate (human); experiment: ELISA, plate coated with p12026-BSA-conjugate 4 µg/ml; serum dilution 1:3200

Chain of p12026-BSA-conjugate (human) (P02769 25-607 limits assumed): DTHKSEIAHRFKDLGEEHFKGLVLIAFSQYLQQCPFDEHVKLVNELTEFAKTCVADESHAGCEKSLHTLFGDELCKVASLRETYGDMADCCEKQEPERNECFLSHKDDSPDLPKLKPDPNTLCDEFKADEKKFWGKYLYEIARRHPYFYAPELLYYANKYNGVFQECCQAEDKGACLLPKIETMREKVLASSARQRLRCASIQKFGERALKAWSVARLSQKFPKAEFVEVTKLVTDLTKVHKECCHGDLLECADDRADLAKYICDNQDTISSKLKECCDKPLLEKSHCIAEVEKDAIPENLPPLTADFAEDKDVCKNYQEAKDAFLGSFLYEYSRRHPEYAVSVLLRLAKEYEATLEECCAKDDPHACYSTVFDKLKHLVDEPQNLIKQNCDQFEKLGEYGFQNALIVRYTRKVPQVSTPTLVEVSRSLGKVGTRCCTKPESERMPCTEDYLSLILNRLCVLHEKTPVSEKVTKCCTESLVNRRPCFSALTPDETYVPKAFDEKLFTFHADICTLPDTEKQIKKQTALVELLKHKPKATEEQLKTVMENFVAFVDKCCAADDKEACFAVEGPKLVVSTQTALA
Chain of NTSR1 (P30989 whole entry): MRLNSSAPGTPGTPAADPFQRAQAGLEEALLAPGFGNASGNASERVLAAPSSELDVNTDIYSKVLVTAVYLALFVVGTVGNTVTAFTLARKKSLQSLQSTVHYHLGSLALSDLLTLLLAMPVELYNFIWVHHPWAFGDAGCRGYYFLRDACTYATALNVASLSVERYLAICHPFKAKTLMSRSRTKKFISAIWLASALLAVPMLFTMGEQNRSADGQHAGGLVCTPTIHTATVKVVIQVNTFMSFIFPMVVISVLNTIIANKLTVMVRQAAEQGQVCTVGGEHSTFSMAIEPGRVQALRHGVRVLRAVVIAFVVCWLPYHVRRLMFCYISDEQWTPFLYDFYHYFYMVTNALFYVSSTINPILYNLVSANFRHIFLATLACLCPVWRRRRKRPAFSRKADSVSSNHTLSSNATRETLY

Substance	reduction of cell growth of CHO NTSR1 overexpressing cells [1]	OD405nm [2]	OD405nm [3]	OD405nm [4]	OD405nm [5]	OD405nm [6]	OD405nm [7]	OD405nm [8]	OD405nm [9]
NTS released or expressed by cancer cells (from UniProt P30990 24-163) (ligand)	60%	–	–	–	–	–	–	–	–
normal serum (antibody)	–	0.016 OD405nm	0.032 OD405nm	0.016 OD405nm	0.012 OD405nm	0.009 OD405nm	0.008 OD405nm	0.004 OD405nm	0.01 OD405nm
